From the supplement of paper PMC10567573

B1: C8orf76 (parent)
chain: YCAKLCEPQWFYEETESSDDVEVL
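Also: lentivirally expressed fusions sorted by FACS into six bins by GFP to DsRed ratio, PSI derived from sequencing read proportions per bin multiplied by bin number.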

Variants of: B1
Experiment: protein stability index of a GFP-peptide fusion (GPS, HEK-293T) (PSI 1-6); higher = more stable
Conditions: c terminus: a fixed tail appended
With YCAKLCEPQWFYEEYESSDDVEVL the protein stability index was 1.96. Variant YCAKLCEPQWFYEEAESSDDVEVL has a protein stability index of 2.63. YCAKLCEPQWFYEEQESSDDVEVL gave a protein stability index of 2.43. Variant YCAKLCEPQWFYEESESSDDVEVL has a protein stability index of 2.54. YCAKLCEPQWFYEEPESSDDVEVL gave a protein stability index of 2.84. For YCAKLCEPQWFYEEVESSDDVEVL, the protein stability index was 2.17. YCAKLCEPQWFYEEWESSDDVEVL showed a protein stability index of 1.81. With YCAKLCEPQWFYEETESSDDVENL the protein stability index was 3.18. YCAKLCEPQWFYEETESSDDVERL gave a protein stability index of 2.44. For YCAKLCEPQWFYEETESSDDVEPL, the protein stability index was 2.87. YCAKLCEPQWFYEETESSDDVEHL gave a protein stability index of 2.62. With YCAKLCEPQWFYEETESSDDVEGL the protein stability index was 2.39. Work on YCAKLCEPQWFYEETESSDDVESL yielded a protein stability index of 2.53. Work on YCAKLCEPQWFYEETESSDDVETL yielded a protein stability index of 2.17. Work on YCAKLCEPQWFYEETESSDDVEDL yielded a protein stability index of 2.41. With YCAKLCEPQWFYEETESSDDVEQL the protein stability index was 2.8. YCAKLCEPQWFYEETESSDDVELL showed a protein stability index of 2.05. Variant YCAKLCEPQWFYEETESSDDVEFL has a protein stability index of 2.45. Variant YCAKLCEPQWFYEETESSDDVECL has a protein stability index of 2.47. Variant YCAKLCEPQWFYEETESSDDVEYL has a protein stability index of 2.78. For YCAKLCEPQWFYEETESSDDVEML, the protein stability index was 2.48. In the case of YCAKLCEPQWFYEETESSDDVEAL, the protein stability index is reported as 2.68. With YCAKLCEPQWFYEETESSDDVEEL the protein stability index was 2.33. For YCAKLCEPQWFYEETESSDDVEIL, the protein stability index was 2.08. For YCAKLCEPQWFYEETESSDDVEWL, the protein stability index was 1.98. YCAKLCEPQWFYEETESSDDVEKL gave a protein stability index of 1.96. YCAKLCEPQWFYEVTESSDDVEVL gave a protein stability index of 1.86. YCAKLCEPQWFYEKTESSDDVEVL gave a protein stability index of 1.39. In the case of YCAKLCEPQWFYEWTESSDDVEVL, the protein stability index is reported as 1.46. YCAKLCEPQWFYESTESSDDVEVL showed a protein stability index of 2.15. In the case of YCAKLCEPQWFYENTESSDDVEVL, the protein stability index is reported as 2.37. YCAKLCEPQWFYEQTESSDDVEVL showed a protein stability index of 1.72. Variant YCAKLCEPQWFYEYTESSDDVEVL has a protein stability index of 2.04. Work on YCAKLCEPQWFYEMTESSDDVEVL yielded a protein stability index of 2.78. In the case of YCAKLCEPQWFYEPTESSDDVEVL, the protein stability index is reported as 1.84. Work on YCAKLCEPQWFYETTESSDDVEVL yielded a protein stability index of 2.17. YCAKLCEPQWFYELTESSDDVEVL gave a protein stability index of 2.29. In the case of YCAKLCEPQWFYERTESSDDVEVL, the protein stability index is reported as 1.8. YCAKLCEPQWFYEETWSSDDVEVL gave a protein stability index of 1.65. With YCAKLCEPQWFYEETDSSDDVEVL the protein stability index was 2.41. With YCAKLCEPQWFYEETSSSDDVEVL the protein stability index was 1.74. YCAKLCEPQWFYEETHSSDDVEVL gave a protein stability index of 3.15. YCAKLCEPQWFYEETASSDDVEVL gave a protein stability index of 2.25. For YCAKLCEPQWFYEETFSSDDVEVL, the protein stability index was 2.19. In the case of YCAKLCEPQWFYEETVSSDDVEVL, the protein stability index is reported as 1.53. Work on YCAKLCEPQWFYEETKSSDDVEVL yielded a protein stability index of 2.28. Work on YCAKLCEPQWFYEETNSSDDVEVL yielded a protein stability index of 1.89. YCAKLCEPQWFYEETLSSDDVEVL gave a protein stability index of 3.46. For YCAKLCEPQWFYEETMSSDDVEVL, the protein stability index was 2.31. In the case of YCAKLCEPQWFYEETISSDDVEVL, the protein stability index is reported as 2.14. YCAKLCEPQWFYEETRSSDDVEVL gave a protein stability index of 1.77. Variant YCAKLCEPQWFYEETGSSDDVEVL has a protein stability index of 1.87. Variant YCAKLCEPQWFYEETPSSDDVEVL has a protein stability index of 1.65. YCAKLCEPQWFYEETYSSDDVEVL showed a protein stability index of 2.59. Variant YCAKLCEPQWFYEETTSSDDVEVL has a protein stability index of 2.22. In the case of YCAKLCEPQWFYEETCSSDDVEVL, the protein stability index is reported as 1.58. Work on YCAKLCEPQWFYEETQSSDDVEVL yielded a protein stability index of 1.54. With YCAKLCEPQWFYEETEKSDDVEVL the protein stability index was 2. In the case of YCAKLCEPQWFYEETEPSDDVEVL, the protein stability index is reported as 2.34. Work on YCAKLCEPQWFYEETEMSDDVEVL yielded a protein stability index of 2.14. YCAKLCEPQWFYEETEGSDDVEVL gave a protein stability index of 3.01. For YCAKLCEPQWFYEETEASDDVEVL, the protein stability index was 2.38. Variant YCAKLCEPQWFYEETEHSDDVEVL has a protein stability index of 1.87. With YCAKLCEPQWFYEETELSDDVEVL the protein stability index was 1.98. YCAKLCEPQWFYEETEYSDDVEVL showed a protein stability index of 2.24. For YCAKLCEPQWFYEETEWSDDVEVL, the protein stability index was 2.74. YCAKLCEPQWFYEETEVSDDVEVL showed a protein stability index of 2.25. Work on YCAKLCEPQWFYEETENSDDVEVL yielded a protein stability index of 2.4. Variant YCAKLCEPQWFYEETECSDDVEVL has a protein stability index of 1.68. In the case of YCAKLCEPQWFYEETEESDDVEVL, the protein stability index is reported as 2.85. In the case of YCAKLCEPQWFYEETEQSDDVEVL, the protein stability index is reported as 2.35. Variant YCAKLCEPQWFYEETEISDDVEVL has a protein stability index of 1.83. Variant YCAKLCEPQWFYEETERSDDVEVL has a protein stability index of 2.25. In the case of YCAKLCEPQWFYEETETSDDVEVL, the protein stability index is reported as 2.42. Work on YCAKLCEPQWFYEETEDSDDVEVL yielded a protein stability index of 3.15. YCAKLCEPQWFYEETEFSDDVEVL showed a protein stability index of 1.87. YCAKLCEPQWFYEETESPDDVEVL showed a protein stability index of 2.3. With YCAKLCEPQWFYEETESEDDVEVL the protein stability index was 2.54. Work on YCAKLCEPQWFYEETESIDDVEVL yielded a protein stability index of 1.88. Variant YCAKLCEPQWFYEETESMDDVEVL has a protein stability index of 2.34. YCAKLCEPQWFYEETESDDDVEVL showed a protein stability index of 2.6. For YCAKLCEPQWFYEETESHDDVEVL, the protein stability index was 2.06. YCAKLCEPQWFYEETESADDVEVL gave a protein stability index of 2.54. Variant YCAKLCEPQWFYEETESFDDVEVL has a protein stability index of 1.49. With YCAKLCEPQWFYEETESLDDVEVL the protein stability index was 2.23. Variant YCAKLCEPQWFYEETESNDDVEVL has a protein stability index of 2.33. YCAKLCEPQWFYEETESGDDVEVL showed a protein stability index of 2.39. For YCAKLCEPQWFYEETESKDDVEVL, the protein stability index was 2.28. Variant YCAKLCEPQWFYEETESVDDVEVL has a protein stability index of 2.1. With YCAKLCEPQWFYEETESYDDVEVL the protein stability index was 2.29. With YCAKLCEPQWFYEETESCDDVEVL the protein stability index was 2.13. YCAKLCEPQWFYEETESQDDVEVL gave a protein stability index of 2.38. YCAKLCEPQWFYEETESRDDVEVL gave a protein stability index of 2. In the case of YCAKLCEPQWFYEETESTDDVEVL, the protein stability index is reported as 2.11.
